Test results taken from patent US20260294251A1, “Method for Medical Imaging” (Integro Theranositcs, LLC, priority 2023, published 2026).
Where two headings read alike, the source gives them in different places. Positions of bridges follow the written chain, without caps; N, C: chain ends. Non-standard residues stand in square brackets, D forms with d. Residues, ends and D or L forms follow the SMILES beside them. *: point of attachment. X1 = CC1(C)C(/C=C/C=C/C=C/C=C2/N(CCC(=O)*)c3ccc4ccccc4c3C2(C)C)=[N+](CCC(=O)[O-])c2ccc3ccccc3c21

Legend:
[1] = biological target: human Ether-à-go-go related gene (hERG) (Homo sapiens, UniProt Q12809); assay: human Ether-à-go-go related gene (hERG) assay; type: cell-based
Sequence of human Ether-à-go-go related gene (hERG) (Q12809 whole entry): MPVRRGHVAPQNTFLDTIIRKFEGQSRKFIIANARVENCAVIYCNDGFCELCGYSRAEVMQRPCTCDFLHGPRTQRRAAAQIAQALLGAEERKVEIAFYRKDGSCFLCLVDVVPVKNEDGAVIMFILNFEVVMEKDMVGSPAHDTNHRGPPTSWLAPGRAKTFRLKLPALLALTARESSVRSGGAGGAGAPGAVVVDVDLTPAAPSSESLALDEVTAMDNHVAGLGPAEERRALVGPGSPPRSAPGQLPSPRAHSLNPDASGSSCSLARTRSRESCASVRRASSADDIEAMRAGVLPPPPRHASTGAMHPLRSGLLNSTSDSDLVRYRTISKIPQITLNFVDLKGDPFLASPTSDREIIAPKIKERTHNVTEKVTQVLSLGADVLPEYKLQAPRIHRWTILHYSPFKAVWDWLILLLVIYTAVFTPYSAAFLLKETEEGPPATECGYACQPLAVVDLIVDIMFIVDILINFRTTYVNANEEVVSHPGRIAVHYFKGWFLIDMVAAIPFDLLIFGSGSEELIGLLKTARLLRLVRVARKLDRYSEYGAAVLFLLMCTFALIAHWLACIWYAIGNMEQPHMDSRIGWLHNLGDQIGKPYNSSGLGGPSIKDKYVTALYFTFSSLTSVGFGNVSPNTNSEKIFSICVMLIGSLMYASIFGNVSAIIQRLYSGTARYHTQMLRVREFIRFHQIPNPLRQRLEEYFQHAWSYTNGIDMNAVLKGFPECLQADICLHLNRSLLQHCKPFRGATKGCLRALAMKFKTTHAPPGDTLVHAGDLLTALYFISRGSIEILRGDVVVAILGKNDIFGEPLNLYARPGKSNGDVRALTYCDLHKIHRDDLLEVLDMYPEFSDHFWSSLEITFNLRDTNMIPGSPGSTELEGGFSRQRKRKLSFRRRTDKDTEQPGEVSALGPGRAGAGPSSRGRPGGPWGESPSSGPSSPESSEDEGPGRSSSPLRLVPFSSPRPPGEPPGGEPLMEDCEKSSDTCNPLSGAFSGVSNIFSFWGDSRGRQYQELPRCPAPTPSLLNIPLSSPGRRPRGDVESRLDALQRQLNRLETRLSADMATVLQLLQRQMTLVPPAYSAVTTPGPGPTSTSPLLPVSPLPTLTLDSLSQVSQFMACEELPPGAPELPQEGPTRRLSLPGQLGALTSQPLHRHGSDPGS
Description: (§1) Results from safety pharmacology studies further support the potential safety of L301 and LS301-IT.

[2] = system: respiratory system functional parameters; assay: Respiratory safety pharmacology after single IV administration; type: in vivo, Sprague-Dawley rats; conditions: single IV up to 20 mg/kg, up to 24 hours
Description: as §1

[3] = rat, in vivo, iv
Description: (§4) Appropriate bioanalytical methods were developed and validated to measure LS301 concentrations in rat plasma (LC-MS/MS) and various dosing formulations (HPLC-UV, UPLC) per good laboratory practice (GLP) regulations.

[4] = system: mouse breast cancer model; conditions: in vivo, iv
[5] = Pharmacokinetics in the rat after single IV delivery
Description: as §4

[6] = system: cardiovascular function; assay: Cardiovascular safety pharmacology after single IV administration; type: in vivo, rat; conditions: rats, single IV up to 20 mg/kg, up to 24 hours
Description: as §1

[7] = system: Wolff-Bloom-Litton Chinese hamster ovary (CHO-WBL) cells; assay: Chromosomal aberration test in CHO-WBL cells; type: cell-based; conditions: with and without an S9 activation system
Experimental: (§2) LS301 was negative for inducing structural/numerical chromosomal aberrations in Wolff-Bloom-Litton Chinese hamster ovary (CHO-WBL) cells with and without an S9 activation system. In a previous study, the potential for LS301 to cause genotoxicity was evaluated in a GLP bacterial mutagenicity (Ames) test in 4 strains of Salmonella typhimurium (TA100, TA1535, TA98, TA1537) and Escherichia coli (WP2uvrA) at doses up to 1000 μg/plate. The results were negative for LS301 mutagenicity.

[8] = system: tumors; assay: Proof of concept imaging and biodistribution in mice after single IV delivery
[9] = Toxicokinetics at the NOAEL in the rat toxicity study; type: in vivo; conditions: plasma, iv, 20 mg/kg, Day 1, at NOAEL 20 mg/kg; for AUC(0-t) at 48 h: read-out: AUC0-48h; for C0: read-out: Co
Experimental: In this study, the NOAEL was considered 20 mg/kg. The corresponding AUC0-48h and Co of LS301 at the established NOAEL on Day 1 were 14200 h*ng/ml and 69900 ng/mL for males and 14900 h*ng/mL and 98800 ng/mL for females, respectively. Therefore, the NOAEL of 20 mg/kg is equivalent to a 3.226 mg/kg human dose.

[10] = Single IV dose toxicity study in rats; type: in vivo, rat; conditions: rat, in vivo, iv; for selectivity ratio: starting dose 0.025 mg/kg, read-out: safety margin
Description: (§3) Therefore, the changes were considered non-adverse.

[11] = system: rats; assay: Single IV dose toxicity study in rats; type: in vivo, rat
Description: as §3

[12] = system: tumors; conditions: mouse, in vivo, iv
[13] = system: male rats; assay: In-vivo safety pharmacology (functional observation battery) in male rats; parameters: species or system rat
Description: as §1

[14] = system: Salmonella typhimurium (TA100, TA1535, TA98, TA1537) and Escherichia coli (WP2uvrA); assay: GLP bacterial mutagenicity (Ames) test; type: cell-based; conditions: doses up to 1000 μg/plate; previous study
Experimental: as §2

For `CC1(C)C(/C=C/C=C/C=C/C=C2/N(CCC(=O)N[C@@H]3CSSC[C@@H](C(=O)N[C@@H](CCCCN)C(=O)O)NC(=O)[C@@H]4CCCN4C(=O)[C@H](CO)NC(=O)[C@H](CC(=O)O)NC(=O)[C@H](CCCNC(=N)N)NC(=O)CNC3=O)c3ccc4ccccc4c3C2(C)C)=[N+](CCC(=O)[O-])c2ccc3ccccc3c21` [LS301, cypate-cyclo(Cys-Gly-Arg-Asp-Ser-Pro-Cys)-Lys-OH] (X1-[dC]GRDSPCK-OH; disulfide 1-7), the IC50 [1] was > 9.98 µM, the “respiratory system functional parameters (tidal volume, respiratory rate, derived minute volume)” value [2] was “did not affect respiratory system functional parameters” and the tissue distribution [3] was “widely distributed to tissues”. The volume of distribution [3] was “greater than the total volume of body water in humans”, the tissue distribution [4] was “distributes and accumulates in tumor and non-tumor tissues, especially the liver and kidneys” and the half-life ([5]; rat) was “fewer than five hours”. For the same molecule, the “systemic exposure versus dose” value ([5]; rat) was “increased proportionally with dose”, the “difference in systemic exposure between male and female” value ([5]; rats) was “No differences were seen” and the cardiovascular function [6] was “did not affect cardiovascular function”. For the same molecule, the structural/numerical chromosomal aberrations [7] was “negative”, the “accumulation in other tissues” value [8] was “accumulated in other tissues, especially the excretory organs of the liver and kidneys” and the “binding and accumulation in tumors” value [8] was “could bind and accumulate in tumors”. The tumor-to-background ratio ([8]; four hours post-injection) was “clear tumor-to-background ratio”, the AUC(0-t) at 48 h ([9]; females) was 14900 ng·h/mL and the C0 ([9]; females) was 98.8 µg/mL. It also gave an AUC(0-t) at 48 h ([9]; males) of 14200 ng·h/mL, a C0 ([9]; males) of 69.9 µg/mL and an NOAEL ([10]; correction factor of 0.88, read-out: corrected NOAEL) of 17.6 mg/kg. It also gave an NOAEL ([10]; single IV, read-out: NOAEL) of 20 mg/kg, a selectivity ratio ([10]; NOAEL 20 mg/kg) of 129 and a selectivity ratio ([10]; corrected NOAEL 17.6 mg/kg) of 114. The “mortalities or changes in body weight, food consumption, ophthalmology, hematology, coagulation, and urinalysis” value ([11]; rats, up to 20 mg/kg LS301) was “no mortalities or test article-related changes”, the tolerability ([11]; rats, up to 20 mg/kg LS301) was “tolerated LS301 and LS301-IT well” and the resolution of discoloration ([11]; ≥10 mg/kg, rat toxicity study) was “resolved on Day 15”. The “tumor uptake (biodistribution)” value [12] was “high uptake in tumors”, the mortality ([13]; male rats, up to 20 mg/kg) was “No mortalities” and the “functional observation battery (FOB) parameters” value ([13]; male rats, up to 20 mg/kg, motor activity, behavior, coordination, reflexes, body temperature) was “no effects”. For the same molecule, the “discoloration (green)” value ([13]; male rats, ≥10 mg/kg) was “transient LS301-related discoloration (green)”, the “effects on central nervous, cardiovascular, and respiratory functions” value ([13]; rats, doses up to 20 mg/kg) was “no significant effects” and the tolerability ([13]; rats, doses up to 20 mg/kg) was “Rats tolerated LS301 well”. For the same molecule, the “mutagenicity (Ames)” value [14] was “negative”.
